Measurements published in patent US6710030B1, “Contortrostain (CN) and methods for its use in preventing metastasis and other conditions” (University of Southern California, priority 1993, dated 2004).

What was measured:
[1] = test system: human platelet rich plasma; details: cited from earlier work
[2] = test system: KSY-1 Kaposi's sarcoma cells; assay: Phosphotyrosine immunoblot, KSY-1 Kaposi's sarcoma cells; type: cell-based; details: data not shown
[3] = test system: platelets; assay: Platelet release reactions (granule contents); type: cell-based
Text: Platelets comprise a plurality of different granules, including alpha granules and dense granules, whose contents are released when the platelets aggregate. […] Thus, normal platelet physiological processes are necessarily further perturbed with administration of applaggin.

[4] = test system: OVCAR-5 cells; assay: Phosphotyrosine immunoblot, OVCAR-5 cells; type: cell-based, human; details: data not shown
[5] = test system: adhesion formation during wound healing; assay: Rabbit model of adhesion formation (uterine horns); type: in vivo; details: Alzet pumps, 10 μl/hr (36 μg/ml)
Description: In preliminary studies in a rabbit model of adhesion formation, abrasion and devascularization of the uterine horns of rabbits were employed to induce adhesion formation during wound healing in untreated animals [Rodgers, K. et al., Int. J. Fertil. 35:40 (1990)]. Alzet pumps were employed to continuously deliver CN at a rate of 10 μl/hr (36 μg/ml). […] Therefore, compositions and methods for preventing adhesion formation whereby an amount of CN effective to prevent adhesion formation is administered to a patient in need of such treatment are also contemplated as within the scope of the present invention.

[6] = Solubility in water; type: physicochemical
Text: CN may be administered by a variety of heretofore known means suitable for delivery thereof into the blood stream in substantial amounts. Intravenous administration of CN in a suitable liquid vehicle or excipient is presently contemplated as the preferred route of administration. […] Alternatively, CN may be administered orally (in the form of tablets or capsules formulated with a suitable binder or excipient material, or in the form of aqueous or oily suspensions, solutions, emulsions, syrups or elixirs) or as a parenteral suspension. As is well known in the art, adjuvants such as local anesthetics, preservatives, buffering agents, lubricants, wetting agents, colorants, flavorings, fillers and diluents may suitably be included in any of these formulations.

[7] = test system: canine carotid artery thrombosis model; assay: Reoccluding canine carotid artery thrombosis model; type: in vivo
Text: The model of carotid artery thrombosis in the anesthetized canine described is a modification of one developed for the study of experimentally-induced coronary artery thrombosis [Romson, J. L. et al., Thromb. Res. 17:841 (1980)]. The experimental procedure results in the formation of a platelet rich intravascular thrombus at the site of an electrolytically-induced endothelial lesion in proximity to a distal arterial stenosis. The carotid artery is selected for the experimental model, thereby allowing one vessel to be used as a control and the other to be used after administration of the thrombolytic and antithrombotic therapy. APSAC (anisoylated plasminogen streptokinase activator complex) has been used as the thrombolytic agent successfully in this model. […] Parameters which are recorded include repeated measures of: phasic and mean carotid artery blood flow velocity using an ultrasonic flow probe, time to thrombotic occlusion, time to recannulization, ex vivo platelet aggregation, prothrombin time, thrombin time, activated partial thromboplastin time, red cell and white cell counts, hematocrit, EKG profile and body temperature, before and after administration of APSAC or APSAC plus CN to separate groups of animals.
Conditioned male mongrel dogs (8-10 kg) have been used for all in vivo studies. […] Arterial blood pressure is monitored from the cannulated femoral artery with the use of a blood pressure transducer. […] Blood flow velocity in the carotid vessels is monitored continuously. […]
Electrolytic injury to the intimal surface of each carotid vessel is accomplished with the use of an intravascular electrode. […] The current delivered to each vessel is monitored continuously and maintained at 300 μA. […]

[8] = test system: T24 cells; assay: Adhesion of T24 cells to immobilized vitronectin; type: cell-based, human
Description: Individual wells of 96-well plates were coated at 4° C. overnight with 100 μl of vitronectin (1 μg/well). Excess proteins were washed off with three washes of phosphate buffered saline (PBS), followed by blocking with 1% bovine serum albumin (BSA) in PBS. Aliquots (100 μl) of cells (5×10^5 cells/ml) were incubated at room temperature for 20 minutes with antibodies or contortrostatin before being applied to the coated wells. Treated cells were allowed to adhere to the wells for 30 minutes at 37° C. Unbound cells were washed off with serum-free medium. Cell adhesion was quantified either by CellTiter 96™ Aqueous Proliferation Assay kit (Promega, Madison, Wis.). Each inhibitor concentration was tested in triplicate, and assays were performed at least three times yielding identical results.

[9] = test system: MDA-MB-435 cells; assay: Growth of MDA-MB-435 cells in vitro on Matrigel-coated plates; type: cell-based, human
Description: MDA-MB-435 cells (0.3×10^6/ml) were added to each well of a 6-well cell culture plates coated with 1/100 dilution of Matrigel . Cells were then treated with CN at various concentration. Growth curves of MDA-MB-435 cells in vitro without CN (circles), and with CN at 100 nM (triangles), and 500 nM (diamonds) are illustrated. Six-well cell culture plates coated with Matrigel (1/100 dilute) were seeded with 3 ml of MDA-MB-435 cell suspension (0.3×10^6/ml). Cell density was determined every 24 hours.

B1: contortrostatin (protein)
chain: DAPANPCCDAATCKLTTGSQCADGLCCDQCKFMKEGTVCRRARGDDLDDYCNGISAGCPRNPFHA
50% inhibition (IC50) of human platelet aggregation in platelet rich plasma [1]: 0.8 mg/L | concentration that completely inhibits ADP-induced platelet aggregation ([1]; preincubation for 1 minute): approximately 100 nM | tyrosine phosphorylation of 120-140 kDa proteins [2]: also observed | platelet release reactions [3]: does not inhibit platelet release reactions | tyrosine phosphorylation [4]: do not show significant enhancement of tyrosine phosphorylation | adhesion formation [5]: decreased adhesion formation | solubility [6]: soluble in water | recovery of platelet counts ([7]; by the conclusion of the experimental procedure): 30-40 % of the baseline value | drop in platelet counts ([7]; during experiment, APSAC plus CN (0.155 mg/kg)): 10-20 % of the baseline value | changes in mean arterial blood pressure or mean heart rate ([7]; following infusion of CN): essentially no changes | adhesion of T24 cells to vitronectin, in words ([8]; FIG. 19 A, B): inhibits adhesion of T24 completely | inhibition of adhesion of T24 cells to vitronectin ([8]; at a concentration less than 10 μg/ml): 100% | cytotoxicity during in vitro culture [9]: no direct cytotoxicity | proliferation of MDA-MB-435 cells ([9]; CN at 100 nM and 500 nM): proliferate equally well as control cells
